Target: FGFR2 on the cell surface of human tumour cell lines (human), P21802
Assay: cell-based or functional assay

Binder	MFM-223, IC50, 72 hr (growth inhibition) [nM]	SNU-16, IC50, 72 hr (growth inhibition) [nM]
Example 17 (immunoconjugate of GAL-FR22-mIgG2a, coupled to lysine side chains) (antibody, here or on the partner: auristatin linker-toxophore on side chain NH of lysine residues, positions not stated (drug/mAb ratio 8.1 for the antibody)) light: DIQMTQSPSSLSASLGGRVTITCKASQDIKNYIAWYQHKPGKSPRLLIHYTSTLQPGVPSRFSGSGSGRDYSFSISNLEPEDIATYYCLQYDDLYMFGGGTKLDIKRTDAAPTVSIFPPSSEQLTSGGASVVCFLNNFYPKDINVKWKIDGSERQNGVLNSWTDQDSKDSTYSMSSTLTLTKDEYERHNSYTCEATHKTSTSPIVKSFNRNEC heavy: QVQLKQSGPGLVQPSQSLSITCTVSGFSLTSFGVHWVRQSPGKGLEWLGVIWSGGSTDYNADFRSRLSISKDNSKSQIFFKMNSLQPDDTAIYYCANFYYGYDDYVMDYWGQGTSVTVSSAKTTAPSVYPLAPVCGDTTGSSVTLGCLVKGYFPEPVTLTWNSGSLSSGVHTFPAVLQSDLYTLSSSVTVTSSTWPSQSITCNVAHPASSTKVDKKIEPRGPTIKPCPPCKCPAPNLLGGPSVFIFPPKIKDVLMISLSPIVTCVVVDVSEDDPDVQISWFVNNVEVHTAQTQTHREDYNSTLRVVSALPIQHQDWMSGKEFKCKVNNKDLPAPIERTISKPKGSVRAPQVYVLPPPEEEMTKKQVTLTCMVTDFMPEDIYVEWTNNGKTELNYKNTEPVLDSDGSYFMYSKLRVEKKNWVERNSYSCSVVHEGLHNHHTTKSFSRTPGK	0.278	0.0616
Example 16 (immunoconjugate of GAL-FR21-mIgG1, coupled to lysine side chains) (antibody, here or on the partner: auristatin linker-toxophore on side chain NH of lysine residues, positions not stated (drug/mAb ratio 8.7 for the antibody)) light: NIVMTQSPKSMSMSVGDRVSITCKASQGVSNDVAWYQKKPGQSPKLLIYSASYRYTGVPDRFTGSGSGTDFTFTISNVQAEDLAVYYCQQHSTTPYTFGGGTKLEIKRTDAAPTVSIFPPSSEQLTSGGASVVCFLNNFYPKDINVKWKIDGSERQNGVLNSWTDQDSKDSTYSMSSTLTLTKDEYERHNSYTCEATHKTSTSPIVKSFNRNEC heavy: QVQLQQPGAEVVKPGASVKMSCKASGYIFTTYNVHWVKQTPGQGLEWIGSIYPDNGDTSYNQNFKGKATLTADKSSSTAYIQLSSLTSEDSAVYYCARGDFAYWGQGTLVTVSSAKTTPPSVYPLAPGSAAQTNSMVTLGCLVKGYFPEPVTVTWNSGSLSSGVHTFPAVLQSDLYTLSSSVTVPSSTWPSETVTCNVAHPASSTKVDKKIVPRDCGCKPCICTVPEVSSVFIFPPKPKDVLTITLTPKVTCVVVDISKDDPEVQFSWFVDDVEVHTAQTQPREEQFNSTFRSVSELPIMHQDWLNGKEFKCRVNSAAFPAPIEKTISKTKGRPKAPQVYTIPPPKEQMAKDKVSLTCMITDFFPEDITVEWQWNGQPAENYKNTQPIMDTDGSYFVYSKLNVQKSNWEAGNTFTCSVLHEGLHNHHTEKSLSHSPGK	0.0788	< 0.03
